# From paper PMC7714071, “Interaction of amyloid beta with humanin and acetylcholinesterase is modulated by ATP” (FEBS Open Bio, 2020)
# Test system: Aβ in H1299 cell-conditioned media
# Experiment: ELISA, oligomer versus total Aβ in H1299 cell-conditioned media
# Assay type: cell-based, human
# Conditions: AChE-immunodepleted H1299 media; Fig. 8B
# Experimental: Aβ ELISAs were carried out according to previous protocols for determining the oligomeric and monomeric concentrations of Aβ and as we recently reported. Briefly, total Aβ (monomers + oligomers) was measured by two‐site binding ELISAs using the capture 6E10 monoclonal antibody and 4G8‐conjugated biotin as the detection antibody, which recognizes a distinct epitope, then quantitated using streptavidin‐HRP.
# Using the same samples, oligomerized Aβ was measured by a single‐site ELISA in which antibodies targeting the same primary sequence epitope were used for both capture (4G8) and detection (4G8‐biotin). Only oligomers are detected with this approach since the 4G8‐biotin antibody cannot bind to the captured monomer because the epitope is blocked by the 4G8 capture antibody. […]
# Conditioned media were immunodepleted (ID) according to the methods previously described and our recently published report. […] The ID media were then carefully removed and analyzed for the presence of the target protein or peptide by ELISA. The same amount of protein (3 µL of 600 µg·mL^−1 total protein) of each sample was analyzed in the experiments. […]
# Both epitopes recognized by the 6E10 and 4G8 antibodies have been previously shown to be exposed in Aβ aggregates. […] Fold change relative to controls using anti‐6E10 or anti‐4G8 antibodies incubated with 300 μL of the medium not incubated with cells was calculated. […]
molecule,measurement,value
acetylcholinesterase (protein) EGREDAELLVTVRGGRLRGIRLKTPGGPVSAFLGIPFAEPPMGPRRFLPPEPKQPWSGVVDATTFQSVCYQYVDTLYPGFEGTEMWNPNRELSEDCLYLNVWTPYPRPTSPTPVLVWIYGGGFYSGASSLDVYDGRFLVQAERTVLVSMNYRVGAFGFLALPGSREAPGNVGLLDQRLALQWVQENVAAFGGDPTSVTLFGESAGAASVGMHLLSPPSRGLFHRAVLQSGAPNGPWATVGMGEARRRATQLAHLVGCPPGGTGGNDTELVACLRTRPAQVLVNHEWHVLPQESVFRFSFVPVVDGDFLSDTPEALINAGDFHGLQVLVGVVKDEGSYFLVYGAPGFSKDNESLISRAEFLAGVRVGVPQVSDLAAEAVVLHYTDWLHPEDPARLREALSDVVGDHNVVCPVAQLAGRLAAQGARVYAYVFEHRASTLSWPLWMGVPHGYEIEFIFGIPLDPSRNYTAEEKIFAQRLMRYWANFARTGDPNEPRDPKAPQWPPYTAGAQQYVSLDLRPLEVRRGLRAQACAFWNRFLPKLLSATDTLDEAERQWKAEFHRWSSYMVHWKNQFDHYSKQDRCSDL,effect of AChE ID on oligomer versus total Aβ,No change
